Source: patent publication US20210388084A1 (JJP BIOLOGICS SP Z O O, published 2021)

Key:
[1] = target: T1, membrane-bound full-length human CD89 (human, UniProt P24071 22-287); assay: FACS, HEK293F-huCD89, 24 h 37C no NaN3, IgA then Ab 10 ug/mL; pre-bound non-aggr serum IgA
T1 construct: on stably or transiently transfected HEK293F cells; also called FcalphaRI; huCD89
Description: (§1) After extensive washing in PBS/BSA/NaN₃, 1:200 diluted PE-conjugated streptavidin (Jackson ImmunoResearch) was added, and incubated for 30 minutes at 4° C. After extensive washing in PBS/BSA/NaN₃, cells were fixed in 2% formaldehyde in PBS/BSA/NaN₃ for 30 minutes at 4° C.

[2] = target: T1, membrane-bound full-length human CD89; assay: FACS, HEK293F-huCD89, 4C +NaN3, IgA then Ab 10 ug/mL; pre-bound heat-aggr serum IgA
Description: as §1

[3] = target: T1, membrane-bound full-length human CD89; assay: FACS, HEK293F-huCD89, 24 h 37C no NaN3, Ab 10 ug/mL then IgA; competitor heat-aggr serum IgA
Description: as §1

[4] = target: T1, membrane-bound full-length human CD89; assay: FACS, HEK293F-huCD89, 4C +NaN3, Ab 10 ug/mL then IgA; competitor non-aggr serum IgA
Description: Then, 10 μL/tube (ie, 0.1×10⁶ cells) of these cells were incubated with or without 50 μL purified mouse anti-human CD89 antibody at 20 μg/mL (in PBS/BSA/NaN₃) for 30 minutes at 4° C. […] After extensive washing in PBS/BSA/NaN₃, 1:200 diluted PE-conjugated streptavidin (Jackson ImmunoResearch) was added, and incubated for 30 minutes at 4° C. After extensive washing in PBS/BSA/NaN₃, cells were fixed in 2% formaldehyde in PBS/BSA/NaN₃ for 30 minutes at 4° C.

[5] = target: T1, membrane-bound full-length human CD89; assay: FACS, HEK293F-huCD89, 4C +NaN3, IgA then Ab 10 ug/mL; pre-bound non-aggr serum IgA
Description: After this (ie, without washing), 50 μL purified mouse anti-human CD89 antibody at 20 μg/mL (in PBS/BSA/NaN₃) was added to these cells, and incubated for another 30 minutes at 4° C. […] After extensive washing in PBS/BSA/NaN₃, 1:200 diluted PE-conjugated streptavidin (Jackson ImmunoResearch) was added, and incubated for 30 minutes at 4° C. After extensive washing in PBS/BSA/NaN₃, cells were fixed in 2% formaldehyde in PBS/BSA/NaN₃ for 30 minutes at 4° C.

[6] = target: T1, membrane-bound full-length human CD89; assay: FACS, HEK293F-huCD89, 4C +NaN3, Ab 10 ug/mL then IgA; competitor heat-aggr serum IgA
Description: To mimic human IgA immune complexes, human (serum-derived) IgA (Bethyl Laboratories) was heated at 63° C. for 30 minutes, and cooled down to RT followed by centrifugation at 4° C. 12000×g for 2 minutes to remove any insoluble protein precipitation.
Then, 10 μL/tube (ie, 0.1×10⁶ cells) of these cells were incubated with or without 50 μL purified mouse anti-human CD89 antibody at 20 μg/mL (in PBS/BSA/NaN₃) for 30 minutes at 4° C.

[7] = target: T1, membrane-bound full-length human CD89; assay: FACS, HEK293F-huCD89, 24 h 37C no NaN3, Ab 10 ug/mL then IgA; competitor non-aggr serum IgA
Description: as §1

[8] = target: T1, membrane-bound full-length human CD89; assay: FACS, HEK293F-huCD89, 24 h 37C no NaN3, IgA then Ab 10 ug/mL; pre-bound heat-aggr serum IgA
Description: as §1

[9] = target: T1, membrane-bound full-length human CD89; assay: FACS, HEK293F-huCD89, unlabeled Ab 10 ug/mL first; competitor MIP8a-PE
Description: Then, 10 μL/tube (ie, 0.1×10⁶ cells) of these cells were incubated with or without 100 μL purified mouse anti-human CD89 antibody at 10 μg/mL (in PBS/BSA/NaN₃) for 30 minutes at 4° C. […] After extensive washing in PBS/BSA/NaN₃, cells were fixed in 2% formaldehyde in PBS/BSA/NaN₃ for 30 minutes at 4° C.

[10] = target: T2, chimeric bovine EC1-Fcγ2R/human EC2-CD89 (bovine/human chimera); assay: FACS, transiently transfected HEK293F
T2 chain: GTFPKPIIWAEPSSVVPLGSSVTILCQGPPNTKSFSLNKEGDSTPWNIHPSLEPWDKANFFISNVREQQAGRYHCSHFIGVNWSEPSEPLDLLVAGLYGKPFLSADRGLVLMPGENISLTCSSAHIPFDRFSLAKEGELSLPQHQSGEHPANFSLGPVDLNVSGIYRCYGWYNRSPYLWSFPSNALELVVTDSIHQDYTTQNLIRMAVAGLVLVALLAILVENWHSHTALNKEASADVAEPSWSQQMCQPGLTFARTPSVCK
Description: After 48 hours and/or 72 hours, the binding of CD89/IgA blocking mouse anti-human CD89 antibodies to aforementioned chimeric human/bovine receptors on transfected cells was analyzed by FACS analysis. To this end, transient transfected HEK293F cells were put at 10×10⁶ cells/mL in ice-chilled phosphate-buffered saline containing 0.1% BSA (Sigma)/0.05% NaN₃ (PBS/BSA/NaN₃) supplemented with 50 μg/mL human IgGs (blocking Fcγ receptors; Sigma) for 10 minutes at 4° C. Then, 10 μL/tube (ie, 0.1×10⁶ cells) of these cells were incubated with or without 100 μL purified mouse anti-human CD89 antibody at 10 μg/mL (in PBS/BSA/NaN₃) for 30 minutes at 4° C. […] After extensive washing in PBS/BSA/NaN₃, cells were subsequently incubated with 1:200 diluted PE-conjugated goat anti-mouse IgG Fey-specific antibodies (Jackson ImmunoResearch) for 30 minutes at 4° C. After extensive washing in PBS/BSA/NaN₃, cells were fixed in 2% formaldehyde in PBS/BSA/NaN₃ for 30 minutes at 4° C.

[11] = target: T3, chimeric human/cynomolgus monkey CD89-III (human/cynomolgus monkey chimera, UniProt P24071 22-287); assay: FACS, transiently transfected HEK293F, 10 ug/mL; ++ strong, + intermediate, -/+ weak
T3 construct: also called ΔGly72-Gly96 human EC1-CD89; III (72-96)
T3 chain: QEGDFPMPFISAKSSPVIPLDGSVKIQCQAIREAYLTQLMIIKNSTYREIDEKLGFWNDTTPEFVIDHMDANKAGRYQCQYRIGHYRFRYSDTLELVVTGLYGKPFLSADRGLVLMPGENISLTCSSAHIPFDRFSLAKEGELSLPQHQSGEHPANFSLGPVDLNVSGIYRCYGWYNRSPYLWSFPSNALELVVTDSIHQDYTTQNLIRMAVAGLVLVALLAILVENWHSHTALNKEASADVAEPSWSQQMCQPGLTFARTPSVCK
Description: (§2) After 48 hours, the binding of CD89/IgA blocking mouse anti-human CD89 antibodies to aforementioned chimeric human CD89/cynomolgus monkey CD89 constructs on transfected cells was analyzed by FACS analysis. To this end, transient transfected HEK293F cells were put at 10×10⁶ cells/mL in ice-chilled phosphate-buffered saline containing 0.1% BSA (Sigma)/0.05% NaN₃ (PBS/BSA/NaN₃) supplemented with 50 μg/mL human IgGs (blocking Fcγ receptors; Sigma) for 10 minutes at 4° C. Then, 10 μL/tube (ie, 0.1×10⁶ cells) of these cells were incubated with or without 100 μL purified mouse anti-human CD89 antibody at 10 μg/mL (in PBS/BSA/NaN₃) for 30 minutes at 4° C. […] After extensive washing in PBS/BSA/NaN₃, cells were subsequently incubated with 1:200 diluted PE-conjugated goat anti-mouse IgG Fey-specific antibodies (Jackson ImmunoResearch) for 30 minutes at 4° C. After extensive washing in PBS/BSA/NaN₃, cells were fixed in 2% formaldehyde in PBS/BSA/NaN₃ for 30 minutes at 4° C.

[12] = target: T4, chimeric human/cynomolgus monkey CD89-I (human/cynomolgus monkey chimera, UniProt P24071 22-287); assay: as above
T4 construct: also called ΔGln22-Lys46 human EC1-CD89; I (22-46)
T4 chain: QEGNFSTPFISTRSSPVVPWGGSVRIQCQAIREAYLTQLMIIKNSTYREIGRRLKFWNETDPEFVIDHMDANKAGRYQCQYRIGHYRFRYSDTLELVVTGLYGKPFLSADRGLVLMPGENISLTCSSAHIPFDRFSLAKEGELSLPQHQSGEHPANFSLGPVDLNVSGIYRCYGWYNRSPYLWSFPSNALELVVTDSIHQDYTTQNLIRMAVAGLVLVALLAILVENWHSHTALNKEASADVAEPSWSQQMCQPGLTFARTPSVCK
Description: as §2

[13] = target: T5, chimeric human/cynomolgus monkey CD89-II (human/cynomolgus monkey chimera, UniProt P24071 22-287); assay: as above
T5 construct: also called ΔIle47-Ile71 human EC1-CD89; II (47-71)
T5 chain: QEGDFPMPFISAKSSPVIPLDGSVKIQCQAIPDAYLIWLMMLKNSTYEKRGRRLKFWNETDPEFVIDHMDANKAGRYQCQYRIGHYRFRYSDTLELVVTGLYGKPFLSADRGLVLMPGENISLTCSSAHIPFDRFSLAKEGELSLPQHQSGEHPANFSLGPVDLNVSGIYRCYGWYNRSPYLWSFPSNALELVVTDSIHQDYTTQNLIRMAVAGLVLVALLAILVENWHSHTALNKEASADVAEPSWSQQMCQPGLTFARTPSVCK
Description: as §2

[14] = target: T6, chimeric human/cynomolgus monkey CD89-hotspots (human/cynomolgus monkey chimera, UniProt P24071 22-287); assay: as above
T6 construct: also called ΔThr58, Gln59; ΔArg73, Arg74, Lys76
T6 chain: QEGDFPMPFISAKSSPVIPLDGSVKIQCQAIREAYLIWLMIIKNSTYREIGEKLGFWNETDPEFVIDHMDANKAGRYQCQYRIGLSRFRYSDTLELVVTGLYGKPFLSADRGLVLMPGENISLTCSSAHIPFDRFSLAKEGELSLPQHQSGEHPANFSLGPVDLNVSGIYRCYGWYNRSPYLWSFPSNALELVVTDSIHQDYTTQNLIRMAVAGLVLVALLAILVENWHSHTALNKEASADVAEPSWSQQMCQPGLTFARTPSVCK
Description: as §2

[15] = target: T7, membrane full-length cynomolgus monkey CD89 (cynomolgus monkey); assay: FACS, transiently transfected HEK293F; - = no binding
T7 construct: also called cynoCD89; cynomolgus EC1-CD89
T7 chain: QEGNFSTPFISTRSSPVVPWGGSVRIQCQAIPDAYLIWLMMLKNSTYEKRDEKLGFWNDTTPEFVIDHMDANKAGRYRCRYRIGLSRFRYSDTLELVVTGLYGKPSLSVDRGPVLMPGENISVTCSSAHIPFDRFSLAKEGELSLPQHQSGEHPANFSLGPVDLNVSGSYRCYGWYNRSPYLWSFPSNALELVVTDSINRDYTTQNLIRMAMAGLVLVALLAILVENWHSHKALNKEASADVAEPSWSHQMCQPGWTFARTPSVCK

[16] = target: T1, membrane-bound full-length human CD89; assay: FACS, HEK293F-huCD89, half-maximum binding
Description: Then, 10 μL/tube (ie, 0.1×10⁶ cells) of these cells were incubated with or without 100 μL titrated (in PBS/BSA/NaN₃) purified chimeric mouse/human anti-human CD89 antibody/tube for 30 minutes at 4° C. […] After extensive washing in PBS/BSA/NaN₃, cells were subsequently incubated with 1:200 diluted PE-conjugated goat anti-human IgG Fey-specific antibodies (Jackson ImmunoResearch) for 30 minutes at 4° C. After extensive washing in PBS/BSA/NaN₃, cells were fixed in 2% formaldehyde in PBS/BSA/NaN₃ for 30 minutes at 4° C.

[17] = target: T8, recombinant C-terminal polyhistidine-tagged human (extracellular) CD89 (human, UniProt P24071 22-227); assay: ELISA, coated rhuCD89, half-maximum binding
T8 construct: extracellular domain; bought (Sino Biological); also called rhuCD89
Description: After extensive washing with PBS/0.05% Tween 20, plates were blocked with PBS/0.05% Tween 20/1% BSA (Roche) for 1 hour at RT. Subsequently, plates were incubated with 50 μL titrated (in block buffer) purified mouse anti-human CD89 antibody/well for 1 hour at RT. […] After extensive washing in PBS/0.05% Tween 20, binding of antibodies on rhuCD89 was determined with 1:5,000 diluted horseradish peroxidase (HRP)-conjugated goat anti-mouse IgG Fey-specific antibodies (Jackson ImmunoResearch) for 1 hour at RT, followed by a ready-to-use solution of TMB substrate (Invitrogen) for colorimetric detection.
After extensive washing with PBS/0.05% Tween 20, plates were blocked with PBS/0.05% Tween 20/1% BSA (Roche) for 1 hour at RT. Subsequently, plates were incubated with and without 50 μL titrated (in block buffer) purified chimeric mouse/human anti-human CD89 antibody/well for 1 hour at RT. After extensive washing in PBS/0.05% Tween 20, binding of antibodies on rhuCD89 was determined with 1:5,000 diluted horseradish peroxidase (HRP)-conjugated goat anti-human IgG Fey-specific antibodies (Jackson ImmunoResearch) for 1 hour at RT, followed by a ready-to-use solution of TMB substrate (Invitrogen) for colorimetric detection.

B1: mouse anti-human CD89-specific antibody 9H7 (antibody, mouse IgG1, V domains shown)
VH: QIQLVQSGPELKKPGETVKISCKASGYTFKNYGMNWVKQAPGKGLKWMAWINTYTGEPTHTDDFKGRFVFSLETSASTAYLQINNLKNEDTATYFCARWGLGTTEEAARDYWGQGTTLTVSS
VL: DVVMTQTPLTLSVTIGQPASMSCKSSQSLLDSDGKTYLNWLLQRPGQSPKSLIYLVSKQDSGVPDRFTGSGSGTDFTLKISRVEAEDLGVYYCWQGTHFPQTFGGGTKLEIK
[1]
  percent IgA binding (remaining): 0 to 25%
[2]
  percent IgA binding: 0 to 25%
[3]
  percent IgA binding (remaining): 0 to 25%
[4]
  percent IgA binding: 0 to 25%
[5]
  percent IgA binding: 0 to 25%
[6]
  percent IgA binding: 0 to 25%
[7]
  percent IgA binding (remaining): 0 to 25%
[8]
  percent IgA binding (remaining): 0 to 25%
[9]
  % blocking of MIP8a-PE binding: > 90%

B2: mouse anti-human CD89-specific antibody 26D6 (antibody, mouse IgG1, V domains shown)
VH: QIQLVQSGPELKKPGETVKISCKASGYTLTKYGMNWVKQAPGKGLKWMGWINTYTGEPTYADDFKGRFAFSLETSASTAYLQINNLKNEDTATYFCASLPLFGRDSFAYWGQGTLVTVSA
VL: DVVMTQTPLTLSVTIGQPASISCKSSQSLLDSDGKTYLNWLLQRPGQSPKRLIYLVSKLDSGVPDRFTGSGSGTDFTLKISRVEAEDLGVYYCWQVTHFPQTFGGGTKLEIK
notes: printed as 26B6 in some paragraphs; also called 26B6
[10]
  binding result: no binding (tested: 10 µg/mL)
[1]
  percent IgA binding (remaining): 0 to 25%
[2]
  percent IgA binding: 0 to 25%
[11]
  binding result: binds
[12]
  binding result: binds
[13]
  binding result: binds
[14]
  binding result: binds
[3]
  percent IgA binding (remaining): 0 to 25%
[4]
  percent IgA binding: 0 to 25%
[5]
  percent IgA binding: 0 to 25%
[6]
  percent IgA binding: 0 to 25%
[15]
  binding result: no binding (tested: 10 µg/mL)
[7]
  percent IgA binding (remaining): 0 to 25%
[8]
  percent IgA binding (remaining): 0 to 25%
[9]
  % blocking of MIP8a-PE binding: > 90%

B3: chimeric mouse/human anti-human CD89 antibody 20B4 (antibody, human IgG4 S228P, kappa)
heavy: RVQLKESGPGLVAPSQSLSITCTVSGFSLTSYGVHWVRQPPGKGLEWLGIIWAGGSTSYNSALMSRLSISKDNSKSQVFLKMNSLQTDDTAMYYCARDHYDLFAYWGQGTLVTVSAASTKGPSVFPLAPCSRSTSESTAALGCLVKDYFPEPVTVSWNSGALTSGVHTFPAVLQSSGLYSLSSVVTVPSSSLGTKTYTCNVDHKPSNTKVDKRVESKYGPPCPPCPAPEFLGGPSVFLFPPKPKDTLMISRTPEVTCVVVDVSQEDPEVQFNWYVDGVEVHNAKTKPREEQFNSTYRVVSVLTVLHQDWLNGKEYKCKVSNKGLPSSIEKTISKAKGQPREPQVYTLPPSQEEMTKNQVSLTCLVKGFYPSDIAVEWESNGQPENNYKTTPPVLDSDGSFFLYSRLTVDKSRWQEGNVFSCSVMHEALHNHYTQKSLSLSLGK
light: DILMTQSPSSMSVSLGDTVSITCHASQDISRNIGWLQQKPGKSFKGLIYHGTNLEDGVPSRFSGSGSGADYSLTISSLESEDFADYYCVQYAQFPRTFGGGTKLEIKRTVAAPSVFIFPPSDEQLKSGTASVVCLLNNFYPREAKVQWKVDNALQSGNSQESVTEQDSKDSTYSLSSTLTLSKADYEKHKVYACEVTHQGLSSPVTKSFNRGEC
notes: mouse V regions on stabilized (S239P) human IgG4/kappa; also called chimeric 20B4; copies: 2 + 2
[16]
  EC50: 0.296 µg/mL
[17]
  EC50: 0.009 µg/mL

B4: chimeric mouse/human anti-human CD89 antibody 8F3 (antibody, human IgG4 S228P, kappa)
heavy: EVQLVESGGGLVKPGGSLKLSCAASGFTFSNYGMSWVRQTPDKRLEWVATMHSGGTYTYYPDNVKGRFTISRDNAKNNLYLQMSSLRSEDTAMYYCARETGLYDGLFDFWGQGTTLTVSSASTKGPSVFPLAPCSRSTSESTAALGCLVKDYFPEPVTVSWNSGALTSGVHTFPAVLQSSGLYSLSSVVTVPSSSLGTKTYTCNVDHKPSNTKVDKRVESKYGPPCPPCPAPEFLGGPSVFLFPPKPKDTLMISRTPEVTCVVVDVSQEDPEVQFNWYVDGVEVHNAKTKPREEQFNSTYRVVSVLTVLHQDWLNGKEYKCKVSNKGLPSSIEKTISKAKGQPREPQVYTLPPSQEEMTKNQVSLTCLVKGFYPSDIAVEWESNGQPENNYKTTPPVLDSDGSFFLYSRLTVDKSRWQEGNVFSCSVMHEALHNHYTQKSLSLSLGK
light: DVQITQSPSYLAASPGETITINCRASKTISKYLAWYQEKPGKTNMLLIYSGSTLQSGVPSRFSGSGSGTDFTLTISSLEPEDLAMYYCQQHDEYPWTFGGGTKLEIKRTVAAPSVFIFPPSDEQLKSGTASVVCLLNNFYPREAKVQWKVDNALQSGNSQESVTEQDSKDSTYSLSSTLTLSKADYEKHKVYACEVTHQGLSSPVTKSFNRGEC
notes: mouse V regions on stabilized (S239P) human IgG4/kappa; also called chimeric 8F3; copies: 2 + 2
[16]
  EC50: 1.32 µg/mL
[17]
  EC50: 0.031 µg/mL

B5: chimeric mouse/human anti-human CD89 antibody 10E7 (antibody, human IgG4 S228P, kappa)
heavy: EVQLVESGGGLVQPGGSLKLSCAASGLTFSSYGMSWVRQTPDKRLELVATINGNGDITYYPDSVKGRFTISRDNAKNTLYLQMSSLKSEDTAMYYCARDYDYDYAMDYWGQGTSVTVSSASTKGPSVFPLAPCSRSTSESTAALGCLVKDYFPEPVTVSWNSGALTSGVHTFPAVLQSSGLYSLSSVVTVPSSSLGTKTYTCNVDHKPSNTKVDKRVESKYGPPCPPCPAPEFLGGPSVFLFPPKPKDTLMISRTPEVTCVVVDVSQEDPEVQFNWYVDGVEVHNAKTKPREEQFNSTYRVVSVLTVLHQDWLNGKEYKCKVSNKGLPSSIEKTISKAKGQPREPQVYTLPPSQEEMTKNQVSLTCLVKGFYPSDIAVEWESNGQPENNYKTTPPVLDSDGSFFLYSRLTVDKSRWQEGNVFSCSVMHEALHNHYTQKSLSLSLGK
light: DIQMTQSTSSLSASLGDSVTISCRASQDIINYLNWYQQKPDGTVKLLIYYTSRLHSGVPSRFSGSGSGTEYSLTVSNLEKEDIATYFCQQGKTLPYTFGGGTKLEIKRTVAAPSVFIFPPSDEQLKSGTASVVCLLNNFYPREAKVQWKVDNALQSGNSQESVTEQDSKDSTYSLSSTLTLSKADYEKHKVYACEVTHQGLSSPVTKSFNRGEC
notes: mouse V regions on stabilized (S239P) human IgG4/kappa; also called chimeric 10E7; copies: 2 + 2
[16]
  EC50: 1.25 µg/mL
[17]
  EC50: 0.016 µg/mL

B6: chimeric mouse/human anti-human CD89 antibody 16D6 (antibody, human IgG4 S228P, kappa)
heavy: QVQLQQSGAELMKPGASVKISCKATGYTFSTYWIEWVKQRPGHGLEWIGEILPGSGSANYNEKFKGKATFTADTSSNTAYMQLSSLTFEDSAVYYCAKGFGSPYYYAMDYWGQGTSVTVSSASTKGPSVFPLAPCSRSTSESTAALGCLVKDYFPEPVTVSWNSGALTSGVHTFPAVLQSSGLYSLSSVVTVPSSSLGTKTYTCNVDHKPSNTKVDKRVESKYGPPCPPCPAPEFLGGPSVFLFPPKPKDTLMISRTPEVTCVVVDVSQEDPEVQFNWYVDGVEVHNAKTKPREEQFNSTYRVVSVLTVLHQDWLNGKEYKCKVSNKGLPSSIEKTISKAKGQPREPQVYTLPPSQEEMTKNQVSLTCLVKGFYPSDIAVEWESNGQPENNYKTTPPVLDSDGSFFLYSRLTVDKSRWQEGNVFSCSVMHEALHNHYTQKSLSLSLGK
light: EIVLTQSPALMAASPGEKVTITCSVSSSISSSNLHWYQQKSETSPKPWIYGTSKLASGVPVRFSGSGSGTSYSLTISNMEAEDAATYYCQQWSSFPLTFGGGTKLEIKRTVAAPSVFIFPPSDEQLKSGTASVVCLLNNFYPREAKVQWKVDNALQSGNSQESVTEQDSKDSTYSLSSTLTLSKADYEKHKVYACEVTHQGLSSPVTKSFNRGEC
notes: mouse V regions on stabilized (S239P) human IgG4/kappa; also called chimeric 16D6; 16D16; copies: 2 + 2
[16]
  EC50: 1.79 µg/mL
[17]
  EC50: 0.108 µg/mL
